We go through one molecule from patent publication US20210163606A1 (ATYR PHARMA, published 2021).

Where a chain is given by its changes, count along the chain named.

In experiment [1] the target is T1, mouse NRP2 M400A on transfected Expi293 cells (Mouse, UniProt O35375 21-931).
T1 construct: whole, on cells
T1 sequence (looked up): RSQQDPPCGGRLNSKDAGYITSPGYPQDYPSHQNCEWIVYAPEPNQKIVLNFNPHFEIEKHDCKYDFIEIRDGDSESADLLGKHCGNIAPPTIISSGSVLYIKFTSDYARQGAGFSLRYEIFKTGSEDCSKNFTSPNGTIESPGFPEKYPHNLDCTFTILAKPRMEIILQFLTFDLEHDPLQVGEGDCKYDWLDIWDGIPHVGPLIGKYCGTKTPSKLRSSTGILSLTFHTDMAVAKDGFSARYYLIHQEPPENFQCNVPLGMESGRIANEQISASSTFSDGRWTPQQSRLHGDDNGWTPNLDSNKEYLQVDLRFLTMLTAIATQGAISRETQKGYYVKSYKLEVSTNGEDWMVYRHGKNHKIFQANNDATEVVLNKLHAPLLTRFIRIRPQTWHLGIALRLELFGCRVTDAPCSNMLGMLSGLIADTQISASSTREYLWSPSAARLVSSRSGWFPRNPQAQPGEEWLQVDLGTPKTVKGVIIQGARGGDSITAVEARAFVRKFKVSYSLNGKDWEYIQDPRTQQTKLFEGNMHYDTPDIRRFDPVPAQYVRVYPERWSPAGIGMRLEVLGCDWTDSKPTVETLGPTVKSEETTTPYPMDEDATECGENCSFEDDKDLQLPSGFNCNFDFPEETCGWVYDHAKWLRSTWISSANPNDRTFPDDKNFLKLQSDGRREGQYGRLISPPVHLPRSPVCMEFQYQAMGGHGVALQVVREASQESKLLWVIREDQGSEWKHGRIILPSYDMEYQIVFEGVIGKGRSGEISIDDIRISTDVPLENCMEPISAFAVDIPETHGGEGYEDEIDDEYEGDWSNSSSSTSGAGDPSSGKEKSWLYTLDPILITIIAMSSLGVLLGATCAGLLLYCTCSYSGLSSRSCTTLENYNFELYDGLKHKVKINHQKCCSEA
Briefly: flow cytometry, aNRP2-10v10 at 10 nM on transfected Expi293 cells gated on live, single, NRP2 expressing cells [panel 11B]. The procedure:
(§1) FIGS. 11A-11B show the measurement of antibody binding to Expi293 cells over-expressing NRP2. […] Gating for NRP2 over-expressing cells is shown.
(§2) Human NRP2a (version 2; see Table N1) and mouse NRP2v2 cDNAs were obtained from Origene. […] Human and mouse NRP2, expression vectors, along with expression vectors encoding all 6 mutants were transfected into Expi293 cells at 1 million cells/mL, by standard techniques. Approximately 40 hours post transfection cells were co-stained with aNRP2-10v10, and a species agnostic anti-NRP2 a1 specific binding antibody.
For orientation: A flow cytometer gives signals particle by particle.

Experiment [2] concerns the target T2, mouse NRP2 I383V on transfected Expi293 cells (Mouse, UniProt O35375 21-931).
T2 construct: whole, on cells; also called 1383V
T2 sequence (looked up): T1 sequence (looked up) with I363V, A380M
The experiment is described as above. The procedure: as §1, §2

B1: aNRP2-10v10 (antibody, V domains shown)
VH: EVQLVQSGAEVKKPGATVKISCKVSGFNIKDYYVHWVQQAPGKGLEWMGRIDVEDDETKYAPKFQGRVTITADTSTDTAYMELSSLRSEDTAVYYCATPIYGAREAWFAYWGQGTLVTVSS
VL: DIQMTQSPSSLSASVGDRVTITCTASSSVSSSYLHWYQQKPGKAPKLLIYRTSNLASGVPSRFSGSGSGTDFTLTISSLQPEDFATYYCHQYYRSPPTFGGGTKVEIK
For B1, the binding result in experiment [1] and in experiment [2] was “no binding (tested: 10 nM)” each time.
